Test results published in patent US20210355207A1 (ACADEMIA SINICA, published 2021).

How the values were obtained:
[1] = target: T1, human advillin-flag (hAvil-flag), exogenously expressed in 293 cells (human, UniProt O75366 1-819); assay: western blot of lysates of 293 cells transfected with hAvil-flag or vector control
T1 construct: also called exogenous expression of human advillin clone; expression plasmid of human advillin; not shown: flag tag from the p3xFLAG-CMV14 vector
T1 sequence (looked up): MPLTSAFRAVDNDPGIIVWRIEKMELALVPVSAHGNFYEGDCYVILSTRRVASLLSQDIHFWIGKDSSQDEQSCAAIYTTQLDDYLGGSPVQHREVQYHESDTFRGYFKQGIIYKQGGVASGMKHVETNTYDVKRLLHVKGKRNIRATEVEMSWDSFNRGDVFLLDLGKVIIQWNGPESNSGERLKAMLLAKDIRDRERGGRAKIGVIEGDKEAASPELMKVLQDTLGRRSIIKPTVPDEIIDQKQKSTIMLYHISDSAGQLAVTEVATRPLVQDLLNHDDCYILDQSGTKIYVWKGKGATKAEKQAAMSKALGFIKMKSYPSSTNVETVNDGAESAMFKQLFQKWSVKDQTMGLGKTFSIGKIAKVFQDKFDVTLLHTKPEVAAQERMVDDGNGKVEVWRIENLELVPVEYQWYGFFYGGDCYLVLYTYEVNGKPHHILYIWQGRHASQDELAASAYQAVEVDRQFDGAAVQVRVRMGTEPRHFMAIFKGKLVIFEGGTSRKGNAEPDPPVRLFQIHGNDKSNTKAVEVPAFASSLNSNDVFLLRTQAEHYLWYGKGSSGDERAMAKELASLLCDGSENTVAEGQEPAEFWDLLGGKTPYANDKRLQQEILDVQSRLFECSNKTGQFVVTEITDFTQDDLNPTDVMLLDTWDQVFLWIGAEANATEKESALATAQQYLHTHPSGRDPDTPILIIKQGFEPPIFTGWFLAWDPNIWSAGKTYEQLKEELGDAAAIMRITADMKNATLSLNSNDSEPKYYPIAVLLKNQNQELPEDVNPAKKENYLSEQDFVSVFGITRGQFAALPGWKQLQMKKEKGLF
From the text: FIG. 6 The monoclonal antibody of human advillin specifically recognized exogenous expression of human advillin in 293 cells. Human advillin clone was tagged with flag, and the construct of human advillin-flag (hAvil-flag) or vector control (flag) were transfected into 293 cells. The lysates were detected with the monoclonal antibody of human advillin and flag antibody respectively. The molecular weight of human advillin is predicted as 92 KDa and the detected signals were corresponded to predicted size of hAvil-flag around 100 KDa. The top signal is supposed as aggregated forms as detected in the flag-antibody recognized signal.
Primary antibodies used in western blot were rabbit polyclonal anti-mouse advillin (1 μg/ml), mouse monoclonal anti-human advillin, and rabbit anti-albumin (1:1000, both GeneTex, San Antonio, Tex., USA). […] Cerebrospinal fluid (CSF) samples or protein from cell lysates separated by SDS-PAGE were transferred onto PVDF membranes by using a Mini Trans-Blot Electrophoretic Transfer Cell (Bio-rad, CA, USA). […] Enhanced chemiluminescence (ECL) involved the Immobilon ECL Kit (Millipore, MA, USA) and signals were detected by using the BioSpectrum Auto Imaging System (UVP, CA, USA). […]

[2] = target: T2, synthetic peptide LKNQNQELPEDVNPAKKENYLSEQD (SEQ ID NO: 2); assay: ELISA screen of hybridoma clones on peptide
T2 construct: Used to screen the hybridoma clones by ELISA; also called another synthetic peptide
T2 peptide: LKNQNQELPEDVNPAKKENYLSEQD

binding result [1]: binds
binding result [2]: binds
B1: monoclonal antibody of human advillin hAvil, produced by the hybridoma YCC-S1 (antibody, V domains shown)
VH: EVKLEESGGGLVQPGGSLKLSCVASGFAFSNSWMSWVRQSPEKGLEWVAEIRLKSDNYASHYAESVKGRFTISRDDSKSRLYLQMNALRAEDTGIYYCSDGTWFTYWGQGTLVTVST
VL: DIVMSQSPSSLAVSVGEKVTMNCKSSQSLLYRANQKNYLAWYQQKPGQSPKLLIYWASTRESGVPDRFTGSGSGTDFTLTISSVKAEDLAVYYCQQYYSHPFTFGSGTKLKIK
notes: also called mouse monoclonal anti-human advillin; anti-advillin antibody
